Laboratory results as given in patent publication US20110136738A1, “Alternatively Transcribed Genes Associated with Schizophrenia” (University College Dublin, National University of Ireland, …, priority 2008, published 2011).
“Also recorded” adds a separate entry of the source.

Test system: isolation reared animals
Assay: Prepulse inhibition of startle in isolation reared animals (ICV midkine)
Assay type: in vivo, male Wistar rats
Conditions: isolation reared rats, four daily ICV injections of midkine 2 μg/day, compared to vehicle-treated animals
Protocol: Isolation-reared animals (isolated animals) were housed singly in non-soft bottom cages (22.5 cm×34.5 cm×17 cm), from time of weaning (postnatal day 25, P25) until completion of behavioral testing. A standard 12 hour light/dark cycle was observed and food and water was provided ad libitum. Noise and visual stimuli were kept to an absolute minimum as described previously by Geyer et al., 1993. Socially reared animals (social animals) were housed in groups of 4 from time of weaning until surgical implantation of a guide cannula on P80, there after they were housed singly. […] The startle apparatus consisted of a sound attenuating chamber (54.6×50.8×30.5 cm), a startle platform which measured the startle response, and an audio stimulator, controlled by the startle reflex software (MED Associates Inc.). […] The resulting movement of the rats was measured during 100 ms after startle stimulus onset, and then rectified, amplified and analyzed by computer and the maximal response and average response over the 100 ms period determined. Baseline startle amplitude was determined as the mean response of all startle trials. The percent prepulse inhibition was determined according to the following formula: 100-([startle amplitude at prepulse trial/startle amplitude at startle trial]×100%). The effect on baseline startle amplitude was analyzed by a one-way analysis of variance (ANOVA). […]

B1: midkine (protein, UniProt P21741 21-143, looked up)
Midkine: VAKKKDKVKKGGPGSECAEWAWGPCTPSSKDCGVGFREGTCGAQTQRIRCRVPCNWKKEFGADCKYKFENWGACDGGTGTKVRQGTLKKARYNAQCQETIRVTKPCTPKTKAKAKAKKGKGKD
Question: How did the “prepulse inhibition (PPI) of startle” value turn out when B1 was run?
Answer: The value was “reverses the deficit observed in prepulse inhibition of startle; also recorded: reversed PPI behavior back to normal”.

Question: What about the “prepulse inhibition (PPI) of startle” value (listed as Midkine) of the same molecule?
Answer: The value was “reversed the deficit observed in prepulse inhibition of startle; also recorded: reversed PPI behavior back to normal”.
